In US20220288160A1 (SYNKLINO A S, published 2022):

Assays:
US28 = target: T1, US28 (human cytomegalovirus, UniProt P69332 1-354); experiment: cell-based or functional assay
T1 sequence: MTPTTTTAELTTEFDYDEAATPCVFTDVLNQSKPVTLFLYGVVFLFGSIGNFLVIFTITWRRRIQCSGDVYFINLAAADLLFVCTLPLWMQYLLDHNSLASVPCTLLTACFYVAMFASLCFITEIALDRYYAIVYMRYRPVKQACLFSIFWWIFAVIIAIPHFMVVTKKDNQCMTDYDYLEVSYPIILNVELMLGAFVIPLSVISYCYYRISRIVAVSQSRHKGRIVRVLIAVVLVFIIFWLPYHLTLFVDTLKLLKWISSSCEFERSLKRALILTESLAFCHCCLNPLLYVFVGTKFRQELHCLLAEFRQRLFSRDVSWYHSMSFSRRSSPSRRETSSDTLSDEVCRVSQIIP

CX3CR1 = target: T2, CX3CR1 (human, UniProt P49238 1-355); experiment: cell-based or functional assay
T2 sequence: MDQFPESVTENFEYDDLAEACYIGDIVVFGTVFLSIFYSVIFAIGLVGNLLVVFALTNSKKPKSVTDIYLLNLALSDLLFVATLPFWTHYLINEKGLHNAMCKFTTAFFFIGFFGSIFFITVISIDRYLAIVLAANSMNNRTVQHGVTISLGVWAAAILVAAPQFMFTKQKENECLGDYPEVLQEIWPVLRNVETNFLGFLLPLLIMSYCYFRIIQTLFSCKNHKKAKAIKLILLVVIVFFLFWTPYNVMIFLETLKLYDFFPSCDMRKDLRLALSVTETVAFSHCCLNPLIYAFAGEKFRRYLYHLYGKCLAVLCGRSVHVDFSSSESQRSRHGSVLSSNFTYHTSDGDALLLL

B1: SYN001 (other)
chain: MQHHGVTKCNITCSKMTSKIPVALLIHYQQNQASCGKRAIILETRQHRLACADPKEQWVKDAMQHLDRQAAALTRNRQPRGWEQLEQSGYPVQRLVALYLAARLSWNQVDQVIRNALASPGSGGDLGEAIREQPEQARLALTLAAAESERFVRQGTGNDEAGAASGPADSGDALLERNYPTGAEFLGDGGDISFSTRGTQNWTVERLLQAHRQLEERGYVFVGYHGTFLEAAQSIVFGGVRARSQDLDAIWRGFYIAGDPALAYGYAQDQEPDARGRIRNGALLRVYVPRSSLPGFYRTGLTLAAPEAAGEVERLIGHPLPLRLDAITGPEEEGGRLETILGWPLAERTVVIPSAIPTDPRNVGGDLDPSSIPDKEQAISALPDYASQPGKPPKDE
Log IC50 (cell killing) (US28): -10.7 | Log IC50 (cell killing) (CX3CR1): -7.82
